Source: the supplement of paper PMC11246515
± gives the standard deviation of the averaged measurements.

Assay: total protein half-life in vivo (active degradation + dilution); higher = more stable protein
[1] = E. coli NCM3722 delta-clpP delta-lon delta-hslV, growth: N-lim chemostat, doubling time 6 h
[2] = E. coli NCM3722 delta-clpP, growth: N-lim chemostat, doubling time 6 h
[3] = E. coli NCM3722 delta-hslV, growth: N-lim chemostat, doubling time 6 h
[4] = E. coli NCM3722 delta-lon, growth: N-lim chemostat, doubling time 6 h
[5] = E. coli NCM3722 delta-smpB, growth: N-lim chemostat, doubling time 6 h
[6] = wild type E. coli NCM3722, growth: C-lim chemostat, doubling time 3 h
[7] = wild type E. coli NCM3722, growth: C-lim chemostat, doubling time 6 h
[8] = wild type E. coli NCM3722, growth: C-lim chemostat, doubling time 12 h
[9] = wild type E. coli NCM3722, growth: N-lim chemostat, doubling time 6 h
[10] = wild type E. coli NCM3722, growth: N-lim chemostat, doubling time 12 h
[11] = wild type E. coli NCM3722, growth: P-lim chemostat, doubling time 6 h
[12] = wild type E. coli NCM3722, growth: P-lim chemostat, doubling time 12 h

Sequence	total protein half-life in vivo [1]	total protein half-life in vivo [2]	total protein half-life in vivo [3]	total protein half-life in vivo [4]	total protein half-life in vivo [5]	total protein half-life in vivo [6]	total protein half-life in vivo [7]	total protein half-life in vivo [8]	total protein half-life in vivo [9]	total protein half-life in vivo [10]	total protein half-life in vivo [11]	total protein half-life in vivo [12]
MDVSYLLDSLNDKQREAVAAPRSNLLVLAGAGSGKTRVLVHRIAWLMSVENCSPYSIMAVTFTNKAAAEMRHRIGQLMGTSQGGMWVGTFHGLAHRLLRAHHMDANLPQDFQILDSEDQLRLLKRLIKAMNLDEKQWPPRQAMWYINSQKDEGLRPHHIQSYGNPVEQTWQKVYQAYQEACDRAGLVDFAELLLRAHELWLNKPHILQHYRERFTNILVDEFQDTNNIQYAWIRLLAGDTGKVMIVGDDDQSIYGWRGAQVENIQRFLNDFPGAETIRLEQNYRSTSNILSAANALIENNNGRLGKKLWTDGADGEPISLYCAFNELDEARFVVNRIKTWQDNGGALAECAILYRSNAQSRVLEEALLQASMPYRIYGGMRFFERQEIKDALSYLRLIANRNDDAAFERVVNTPTRGIGDRTLDVVRQTSRDRQLTLWQACRELLQEKALAGRAASALQRFMELIDALAQETADMPLHVQTDRVIKDSGLRTMYEQEKGEKGQTRIENLEELVTATRQFSYNEEDEDLMPLQAFLSHAALEAGEGQADTWQDAVQLMTLHSAKGLEFPQVFIVGMEEGMFPSQMSLDEGGRLEEERRLAYVGVTRAMQKLTLTYAETRRLYGKEVYHRPSRFIGELPEECVEEVRLRATVSRPVSHQRMGTPMVENDSGYKLGQRVRHAKFGEGTIVNMEGSGEHSRLQVAFQGQGIKWLVAAYARLESV	6.25 ± 0.18 h	5.48 ± 0.56 h	3.81 ± 0.25 h	4.29 ± 0.12 h	3.45 ± 0.13 h	2.96 ± 0.033 h	4.72 ± 0.42 h	8.03 ± 1.1 h	3.781 ± 0.029 h	5.67 ± 0.15 h	4.83 ± 0.25 h	7.8 ± 0.18 h
MEALGMIETRGLVALIEASDAMVKAARVKLVGVKQIGGGLCTAMVRGDVAACKAATDAGAAAAQRIGELVSVHVIPRPHGDLEEVFPIGLKGDSSNL [P0ABF4]	4.35 ± 0.68 h	7.77 h	4.24 ± 0.36 h	4.82 ± 0.61 h	4.98 ± 0.22 h	2.59 ± 0.7 h	5.83 ± 0.41 h	11.5 ± 1.5 h	4.8 ± 0.3 h	7.48 ± 0.57 h	5.28 ± 0.062 h	12.1 ± 1.1 h
MEDLNVVDSINGAGSWLVANQALLLSYAVNIVAALAIIIVGLIIARMISNAVNRLMISRKIDATVADFLSALVRYGIIAFTLIAALGRVGVQTASVIAVLGAAGLAVGLALQGSLSNLAAGVLLVMFRPFRAGEYVDLGGVAGTVLSVQIFSTTMRTADGKIIVIPNGKIIAGNIINFSREPVRRNEFIIGVAYDSDIDQVKQILTNIIQSEDRILKDREMTVRLNELGASSINFVVRVWSNSGDLQNVYWDVLERIKREFDAAGISFPYPQMDVNFKRVKEDKAA [P0C0S1]	6.89 ± 0.37 h	7.53 ± 0.59 h	–	6.91 ± 1.2 h	5.91 ± 0.16 h	–	6.24 ± 0.12 h	12.81 ± 0.023 h	–	12.7 ± 0.82 h	6.423 ± 0.022 h	13.2 ± 0.67 h
MEFLMDPSIWAGLLTLVVLEIVLGIDNLVFIAILADKLPPKQRDKARLLGLSLALIMRLGLLSLISWMVTLTKPLFTVMDFSFSGRDLIMLFGGIFLLFKATTELHERLENRDHDSGHGKGYASFWVVVTQIVILDAVFSLDAVITAVGMVNHLPVMMAAVVIAMAVMLLASKPLTRFVNQHPTVVVLCLSFLLMIGLSLVAEGFGFHIPKGYLYAAIGFSIIIEVFNQIARRNFIRHQSTLPLRARTADAILRLMGGKRQANVQHDADNPMPMPIPEGAFAEEERYMINGVLTLASRSLRGIMTPRGEISWVDANLGVDEIREQLLSSPHSLFPVCRGELDEIIGIVRAKELLVALEEGVDVAAIASASPAIIVPETLDPINLLGVLRRARGSFVIVTNEFGVVQGLVTPLDVLEAIAGEFPDADETPEIITDGDGWLVKGGTDLHALQQALDVEHLADDDDIATVAGLVISANGHIPRVGDVIDVGPLHITIIEANDYRVDLVRIVKEQPAHDEDE [P0AEC0]	6.99 ± 0.2 h	6.691 ± 0.015 h	6.46 ± 0.09 h	6.27 ± 0.49 h	5.4 ± 0.28 h	–	5.88 ± 0.19 h	12.3 ± 0.92 h	6.71 ± 0.84 h	14.2 ± 0.73 h	6.06 ± 0.7 h	12.2 ± 1.3 h
MEFSFSPKRLVVAVAAALPLMASAADTPSTATARKGFAGYDHPNQYLVKPATTIADNMMPVMQHPAQDKETQQKLAELEKKTGKKPNVVVFLLDDVGWMDVGFNGGGVAVGNPTPDIDAVASQGLILTSAYSQPSSSPTRATILTGQYSIHHGILMPPMYGQPGGLQGLTTLPQLLHDQGYVTQAIGKWHMGENKESQPQNVGFDDFRGFNSVSDMYTEWRDVHVNPEVALSPDRSEYIKQLPFSKDDVHAVRGGEQQAIADITPKYMEDLDQRWMDYGVKFLDKMAKSDKPFFLYYGTRGCHFDNYPNAKYAGSSPARTSYGDCMVEMNDVFANLYKTLEKNGQLDNTLIVFTSDNGPEAEVPPHGRTPFRGAKGSTWEGGVRVPTFVYWKGMIQPRKSDGIVDLADLFPTALDLAGHPGAKVANLVPKTTFIDGVDQTSFFLGTNGQSNRKAEHYFLNGKLAAVRMDEFKYHVLIQQPYAYTQSGYQGGFTGTVMQTAGSSVFNLYTDPQESDSIGVRHIPMGVPLQTEMHAYMEILKKYPPRAQIKSD	–	–	–	–	–	–	–	–	3.56 h	–	–	–
MEFSPPLQRATLIQRYKRFLADVITPDGRELTLHCPNTGAMTGCATPGDTVWYSTSDNTKRKYPHTWELTQSQSGAFICVNTLWANRLTKEAILNESISELSGYSSLKSEVKYGAERSRIDFMLQADSRPDCYIEVKSVTLAENEQGYFPDAVTERGQKHLRELMSVAAEGQRAVIFFAVLHSAITRFSPARHIDEKYAQLLSEAQQRGVEILAYKAEISAEGMALKKSLPVTL [P0A823]	6.44 ± 0.13 h	5.88 ± 0.28 h	–	5.97 ± 0.26 h	5.41 ± 0.73 h	3.39 ± 0.092 h	6.23 ± 0.38 h	11.2 ± 0.24 h	5.71 ± 0.11 h	10.2 ± 0.88 h	5.67 ± 0.24 h	13.5 ± 1.4 h
MEFSVKSGSPEKQRSACIVVGVFEPRRLSPIAEQLDKISDGYISALLRRGELEGKPGQTLLLHHVPNVLSERILLIGCGKERELDERQYKQVIQKTINTLNDTGSMEAVCFLTELHVKGRNNYWKVRQAVETAKETLYSFDQLKTNKSEPRRPLRKMVFNVPTRRELTSGERAIQHGLAIAAGIKAAKDLGNMPPNICNAAYLASQARQLADSYSKNVITRVIGEQQMKELGMHSYLAVGQGSQNESLMSVIEYKGNASEDARPIVLVGKGLTFDSGGISIKPSEGMDEMKYDMCGAAAVYGVMRMVAELQLPINVIGVLAGCENMPGGRAYRPGDVLTTMSGQTVEVLNTDAEGRLVLCDVLTYVERFEPEAVIDVATLTGACVIALGHHITGLMANHNPLAHELIAASEQSGDRAWRLPLGDEYQEQLESNFADMANIGGRPGGAITAGCFLSRFTRKYNWAHLDIAGTAWRSGKAKGATGRPVALLAQFLLNRAGFNGEE	6.37 ± 0.15 h	6.34 ± 0.31 h	6.11 ± 0.078 h	7.01 ± 0.64 h	5.81 ± 0.16 h	3.38 ± 0.097 h	6.45 ± 0.3 h	11.7 ± 1 h	6.215 ± 0.053 h	12.7 ± 1.1 h	6.33 ± 0.09 h	12.7 ± 0.79 h
